From patent publication US20050181450A1, “Novel inositol 1,4,5-trisphosphate (IP3) receptor-binding protein and an IP3 indicator” (priority 2002, published 2005)

Experiments:
Type in all cases: binding
[1] = molecular target: T1, type II phosphatidylinositol phosphate kinase γ (Homo sapiens, UniProt Q8TBX8); assay: Co-immunoprecipitation in Cos-7 cells with Myc-PIPKII γ; settings: overexpressing Cos-7 cells
T1 construct: expressed in transfected cells; host or cells: Cos-7
T1 sequence (Q8TBX8 1-421): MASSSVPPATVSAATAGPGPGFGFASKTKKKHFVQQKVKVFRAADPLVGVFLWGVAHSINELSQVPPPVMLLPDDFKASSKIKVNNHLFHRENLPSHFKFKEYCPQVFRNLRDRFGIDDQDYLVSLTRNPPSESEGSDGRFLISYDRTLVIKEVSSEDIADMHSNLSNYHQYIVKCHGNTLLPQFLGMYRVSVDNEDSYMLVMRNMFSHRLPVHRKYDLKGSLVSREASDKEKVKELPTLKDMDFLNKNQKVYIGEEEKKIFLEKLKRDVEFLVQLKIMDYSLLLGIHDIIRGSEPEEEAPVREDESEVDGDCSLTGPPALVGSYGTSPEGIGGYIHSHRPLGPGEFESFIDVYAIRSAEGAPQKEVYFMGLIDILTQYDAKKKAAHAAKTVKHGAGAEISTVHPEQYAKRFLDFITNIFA
Description: (§1) (A and B) IRBIT was transfected into Cos-7 cells with Myc-tagged type II phosphatidylinositol phosphate kinase α, β or γ (PIPKII α, β or γ). After two days, cells were lysed in lysis buffer, followed by centrifugation (100,000×g, 30 min). The supernatants were incubated with 3 μg of anti-IRBIT antibody, rabbit IgG, mouse anti-Myc antibody, or mouse IgG for 1 h at 4° C. After adding 5 μl of Protein G beads and another 1-h incubation, the beads were washed five times with lysis buffer and analyzed by Western blotting with anti-IRBIT antibody or HRP conjugated anti-Myc antibody. Immunoprecipitation of Myc-PIPKII α, β or γ with anti-Myc antibody co-precipitated IRBIT (A). In the reciprocal experiments, immunoprecipitation of IRBIT with anti-IRBIT antibody precipitated Myc-PIPKII α, β or γ.
as §1, with “IRBIT” for “(A and B) IRBIT”, “antibody.” for “antibody. Immunoprecipitation of Myc-PIPKII α, β or γ with anti-Myc antibody co-precipitated IRBIT (A). In the reciprocal experiments, immunoprecipitation of IRBIT with anti-IRBIT antibody precipitated Myc-PIPKII α, β or γ.”

IP3R1 = molecular target: T2, IP3R1 (Mus musculus, UniProt P11881, N1264K/P2675L); assay: Co-immunoprecipitation from mouse cerebellar crude microsome; settings: detergent extract of mouse cerebellar crude microsome
T2 construct: from tissue; host or cells: mouse cerebellum, detergent extract of crude microsome
Description: The detergent extract of mouse cerebellar crude microsome was immunoprecipitated with anti-IRBIT antibody or control antibody. The immunoprecipitates were subjected to SDS-PAGE followed by Western blotting with anti-IP3R1 antibody (upper panel) or anti-IRBIT (lower panel) antibody.
Detergent-solubilized extract from the crude microsome was prepared with 1% Nonidet P-40-containing 50 mM Hepes (pH 7.4), 1 mM MgCl2, and protease inhibitors for 30 minutes at 4° C., and centrifuged at 20,000×g for 30 minutes. The supernatant was diluted 10-fold in an immunoprecipitation buffer (10 mM Hepes (pH 7.4), 150 mM NaCl, 1 mM MgCl2, and 1% Nonidet P-40) and incubated with rabbit anti-IRBIT antibody (3 μg) or control rabbit IgG (3 μg) for 2 hours at 4° C. Protein G Sepharose 4 fast flow (Amersham Pharmacia Biotech) was added for reaction with immune complexes for 2 hours at 4° C. Resins were washed three times with an immunoprecipitation buffer and subjected to Western blotting with anti-IRBIT antibody or mouse anti-IP3R1 antibody KM1112 (47).

[2] = system: sodium bicarbonate cotransporter; assay: Immunoprecipitation from mouse cerebellum and mass spectrometry; settings: mouse cerebellar cytosol or microsome detergent extract
Description: (§2) Mouse cerebellar cytosol fraction or detergent extract of microsome fraction was immunoprecipitated with 50 μg of anti-IRBIT antibody or rabbit IgG. Immunoprecipitates were separated by 10% SDS-PAGE gel, and stained with Coomassie Brilliant Blue. The bands were excised from the gel and digested with lysyl endopeptidase and analyzed with mass spectrometry. Arrows indicate the bands of sodium bicarbonate cotransporter.
as §2, with “Blue (FIG. 13).” for “Blue.”

T2 sequence (P11881 whole entry N1264K/P2675L): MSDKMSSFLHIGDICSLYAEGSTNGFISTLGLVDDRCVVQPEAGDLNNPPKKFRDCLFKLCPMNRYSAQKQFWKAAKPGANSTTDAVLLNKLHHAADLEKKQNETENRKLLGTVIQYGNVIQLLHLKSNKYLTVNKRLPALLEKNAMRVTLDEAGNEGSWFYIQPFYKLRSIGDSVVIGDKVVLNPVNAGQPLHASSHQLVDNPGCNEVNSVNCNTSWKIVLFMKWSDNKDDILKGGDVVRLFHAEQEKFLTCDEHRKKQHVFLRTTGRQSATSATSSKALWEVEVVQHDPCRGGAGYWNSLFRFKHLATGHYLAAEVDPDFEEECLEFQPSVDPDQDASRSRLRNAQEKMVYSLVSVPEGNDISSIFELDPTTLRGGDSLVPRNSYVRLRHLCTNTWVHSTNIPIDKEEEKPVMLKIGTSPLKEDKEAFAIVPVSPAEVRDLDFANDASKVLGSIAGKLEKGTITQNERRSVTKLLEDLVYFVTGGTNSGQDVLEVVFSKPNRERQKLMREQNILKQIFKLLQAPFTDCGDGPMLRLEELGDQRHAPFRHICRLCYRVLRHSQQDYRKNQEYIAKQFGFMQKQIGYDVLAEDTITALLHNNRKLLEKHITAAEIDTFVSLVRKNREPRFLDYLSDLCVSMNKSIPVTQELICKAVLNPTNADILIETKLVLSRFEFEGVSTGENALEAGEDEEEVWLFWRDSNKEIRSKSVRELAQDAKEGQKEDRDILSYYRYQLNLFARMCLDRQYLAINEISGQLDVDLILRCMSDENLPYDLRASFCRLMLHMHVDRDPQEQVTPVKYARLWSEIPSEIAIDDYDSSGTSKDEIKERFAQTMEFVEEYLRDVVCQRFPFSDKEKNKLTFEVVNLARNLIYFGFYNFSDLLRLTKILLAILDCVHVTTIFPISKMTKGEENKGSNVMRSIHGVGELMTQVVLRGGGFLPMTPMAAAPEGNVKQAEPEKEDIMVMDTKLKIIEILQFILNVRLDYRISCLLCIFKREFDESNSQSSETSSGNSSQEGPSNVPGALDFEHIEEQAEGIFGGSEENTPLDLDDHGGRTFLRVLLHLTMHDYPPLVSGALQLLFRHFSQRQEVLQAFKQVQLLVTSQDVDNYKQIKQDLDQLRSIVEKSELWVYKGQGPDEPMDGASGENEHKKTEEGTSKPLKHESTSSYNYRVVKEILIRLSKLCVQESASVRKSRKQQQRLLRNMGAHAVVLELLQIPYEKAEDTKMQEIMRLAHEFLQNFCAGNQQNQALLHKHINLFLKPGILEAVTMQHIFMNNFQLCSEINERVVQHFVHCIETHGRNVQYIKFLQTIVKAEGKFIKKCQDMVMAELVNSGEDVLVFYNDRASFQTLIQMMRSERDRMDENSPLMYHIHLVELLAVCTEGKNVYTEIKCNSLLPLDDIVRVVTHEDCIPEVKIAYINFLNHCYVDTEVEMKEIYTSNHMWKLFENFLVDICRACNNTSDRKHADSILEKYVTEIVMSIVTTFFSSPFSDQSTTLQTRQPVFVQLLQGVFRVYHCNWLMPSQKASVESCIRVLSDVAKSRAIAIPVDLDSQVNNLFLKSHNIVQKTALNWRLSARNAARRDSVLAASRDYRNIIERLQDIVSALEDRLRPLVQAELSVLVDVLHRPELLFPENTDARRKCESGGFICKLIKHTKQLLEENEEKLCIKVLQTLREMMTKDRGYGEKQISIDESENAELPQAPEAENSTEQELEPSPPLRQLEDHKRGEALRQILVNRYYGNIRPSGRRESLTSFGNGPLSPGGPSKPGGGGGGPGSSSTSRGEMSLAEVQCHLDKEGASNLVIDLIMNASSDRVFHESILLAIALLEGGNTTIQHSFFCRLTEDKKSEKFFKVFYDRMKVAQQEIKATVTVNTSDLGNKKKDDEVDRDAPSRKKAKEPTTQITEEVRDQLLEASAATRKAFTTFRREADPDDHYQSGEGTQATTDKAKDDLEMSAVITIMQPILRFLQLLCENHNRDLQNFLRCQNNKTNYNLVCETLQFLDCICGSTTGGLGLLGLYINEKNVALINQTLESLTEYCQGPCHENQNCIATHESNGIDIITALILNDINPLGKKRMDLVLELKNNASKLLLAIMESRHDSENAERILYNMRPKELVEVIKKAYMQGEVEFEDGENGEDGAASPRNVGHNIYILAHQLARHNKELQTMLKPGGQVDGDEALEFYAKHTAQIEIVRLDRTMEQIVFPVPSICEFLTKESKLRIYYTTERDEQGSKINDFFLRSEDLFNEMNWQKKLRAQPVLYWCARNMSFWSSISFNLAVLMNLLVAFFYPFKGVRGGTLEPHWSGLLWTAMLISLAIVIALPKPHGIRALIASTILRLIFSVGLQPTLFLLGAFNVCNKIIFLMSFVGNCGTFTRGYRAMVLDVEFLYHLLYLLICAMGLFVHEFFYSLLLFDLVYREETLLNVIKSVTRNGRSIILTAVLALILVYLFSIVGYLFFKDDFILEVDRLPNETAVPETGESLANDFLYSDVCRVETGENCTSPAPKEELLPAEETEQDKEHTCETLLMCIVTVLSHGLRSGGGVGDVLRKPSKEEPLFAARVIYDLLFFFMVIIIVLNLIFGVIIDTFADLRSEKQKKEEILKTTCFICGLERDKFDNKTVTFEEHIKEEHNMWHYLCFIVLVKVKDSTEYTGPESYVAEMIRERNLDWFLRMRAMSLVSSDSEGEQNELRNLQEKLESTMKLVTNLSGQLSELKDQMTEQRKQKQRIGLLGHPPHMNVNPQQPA

B1: IRBIT: novel IP3 receptor-binding protein of 530 amino acids, SEQ ID NO: 1 (protein, listed as Mus musculus)
chain: MSMPDAMPLPGVGEELKQAKEIEDAEKYSFMATVTKAPKKQIQFADDMQEFTKFPTKTGRRSLSRSISQSSTDSYSSAASYTDSSDDEVSPREKQQTNSKGSSNFCVKNIKQAEFGRREIEIAEQDMSALISLRKRAQGEKPLAGAKIVGCTHITAQTAVLIETLCALGAQCRWSACNIYSTQNEVAAALAEAGVAVFAWKGESEDDFWWCIDRCVNMDGWQANMILDDGGDLTHWVYKKYPNVFKKIRGIVEESVTGVHRLYQLSKAGKLCVPAMNVNDSVTKQKFDNLYCCRESILDGLKRTTDVMFGGKQVVVCGYGEVGKGCCAALKALGAIVYITEIDPICALQACMDGFRVVKLNEVIRQVDVVITCTGNKNVVTREHLDRMKNSCIVCNMGHSNTEIDVTSLRTPELTWERVRSQVDHVIWPDGKRVVLLAEGRLLNLSCSTVPTFVLSITATTQALALIELYNAPEGRYKQDVYLLPKKMDEYVASLHLPSFDAHLTELTDDQAKYLGLNKNGPFKPNYYRY
[1]
  interaction with PIPKII γ: interacted
IP3R1
  co-immunoprecipitation of IP3R1 with anti-IRBIT antibody: co-immunoprecipitated
[2]
  interaction with sodium bicarbonate cotransporter: interacted
